According to the supplement of paper PMC9170038:

Each sequence was assayed on MS2 coat protein (assay: apparent KD of MS2 coat protein, switch ON state; designed switch direction (-1 OFF switch, 1 ON switch): 1; higher = weaker reporter binding). Settings: FMN input: 0 or 200 uM; Eterna round: R93 (includes R88 designs).
Outline: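 Designed RNA switches were transcribed on-chip from Illumina sequencing clusters and titrated with SNAP-549-labelled MS2 coat protein in twofold steps from 0.7 or 1.5 nM up to 3 µM. Each step lasted 0.8–1.5 h at first and 10–20 min by the end, in 100 mM Tris-HCl pH 7.5, 80 mM KCl and 4 mM MgCl2, without or with constant ligand. Apparent KD is the median, for each design, of fits to normalised cluster binding curves.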

Sequence	apparent KD of MS2 coat protein
CGGAGACAUGAGGAUCACCCAUGUGAGAAGAGGCGAGGAUAUCGAAAGAAAGAAGAGAAACGAGAAGGCGCGAGUA [salish99-SS1-066]	20.3 nM
AAAUAAAGGACUGAGGAUAUACCACAUGAAACAUGAGGAUCACCCAUGUAAUAAUACAAAGGGUGGUAGAAGGUAGUCCACAAACA [so let's mod Hyphema]	14 nM
AUAAAAGAAGCGAAGGAUAUCCAAAACUCAACAUGAGGAUCACCCAUGUAAAGAAAGAAAAAAUGGGAGAAGGUCGCAAAGAAUA [73%, More Fisker Same State 2, D3, 10]	11.8 nM
AGAAAUAAAAGCGAGGAUAUCCAAAAGAAAACAUGAGGAUCACCCAUGUAAAAGAAAAUAAAAUGGGAGAAGGCGCAAAAUAAAG	14.7 nM
AAUAUACAUGAGGAUCACCCAUGUUAGGUGGGACUAGGAUAUCAAAAUAAAUAAAGAACAUGAGAAGGAGUAUCAA [JR_SS001_Sub401]	94.5 nM
GCAAAACAUGAGGAUCACCCAUGUCAACAAAAUCAAGGAUAUGAGCCAGCAAUGCCGGCAUCAGAAGGUGAACCUU [Enqule]	53.2 nM
CUGGACAUAGUAUAGGAUAUAUGAAUAAUUACAUGAGGAUCACCCAUGUCCAUUUAUAUGGGAACAUAGAAGGGUGGUAGUUAAG [Mat - Same state - Malcolm Mod - D142]	147 nM
GAAAAACAUGAGGAUCACCCAUGUGUAAAUAUGGAAGGAUAUACAAAGACGUAAGUCAAAGUAGAAGGUCUAAAAG [Mat - Same State 1 - Eli mod - D17]	18.8 nM
AACAUACAUGAGGAUCACCCAUGUUCCGGCAGGUCAGGAUAUUCAUCGAAAGUGUUAUAAGAAGAAGGGACAUAAA [JR_SS001_Sub011]	34 nM
AGAAAUAAACCGAAGGAUAUCUAAACCUAAACAUGAGGAUCACCCAUGUAAAAGAAAAUAAAAUGGGAGAAGGUCGGAAAUAAGA [Designing denovo 12]	17.5 nM
AGAAGACAUGAGGAUCACCCAUGUGGGAAUAUGGGAGGAUAUACAAAGACGAGAGUCAGAGUAGAAGGCCUAGGAU [salish99-SS1-092]	37.3 nM
AUAAAACAUGAGGAUCACCCAUGUAGAAACAUGGGAGGAUAUACAAAGACGAAAGUCAAAGUAGAAGGCCUAAAAG [Meechl MS2 SS1 2]	104 nM
GAUAAACAUGAGGAUCACCCAUGUAGAAAUAUGGGAGGAUAUACGAAGACGAAAGUCAAAGUAGAAGGCCUAAAAG [Mat - Same State 1 - Eli mod - D114]	23.9 nM
UGAAGACAUGAGGAUCACCCAUGUGGGAUUAUGGGAGGAUAUACAAAGACGAGAGUCAGAGUAGAAGGCCUAGGAU [salish99-ss1-117(!)]	31.4 nM
AAAACACAUGAGGAUCACCCAUGUAAAAACAUGAGAGGAUAUGCAUAGAAAAAAAACUAUGCAGAAGGCUCAUGUG [SS1 - 5]	20 nM
AACAAUCUAUCUGAGGAUAUCAUGUAAAAAACAUGAGGAUCACCCAUGUGCAGGAAAACUGCAUAUGAGAAGGCAGAUAGAUUGA [SS2 :P - 600]	98.1 nM
CAGAGACAUGAGGAUCACCCAUGUAGGAUUAUGGGAGGAUAUACAAAGACGAGAGUCAGAGUAGAAGGCCUAGGAA [salish99-ss1-141]	21.1 nM
AGAAGACAUGAGGAUCACCCAUGUGGGAUUAUGGGAGGAUAUACAAAGACGAGAGUCAGAGUAGAAGGCCUAGGAG [salish99-ss1-114(!)]	45.4 nM
AACAAUCUAUCUGAGGAUAUAUGUCGAAAGACAUGAGGAUCACCCAUGUGAAAACAUGAAAAAUAAUAGAAGGCAGAUAGAUUGA [SS2: 1141]	80.5 nM
GAAAAACAUGAGGAUCACCCAUGUGUAAAUAUGGGAGGAUAUACAAAGACGAAAGUCAAAGUAGAAGGCCUAAAAG [Mat - Same State 1 - Eli mod - D5]	23.2 nM
AGGAAACAUGAGGAUCACCCAUGUAAAAAUAUGGGAGGAUAUACGAAGACAAAAAAAAAAGUAGAAGGCCUAAAAG [Garnet 12]	65.2 nM
GAAAAACAUGAGGAUCACCCAUGUAGAAAUAUGGGAGGAUAUACAAAGACGAAAGUCAAAGUAGAAGGCCUGAAAG [77%, Mat - Mod of Eli, 1]	27.1 nM

Sequence	apparent KD of MS2 coat protein
AAUAAACAUGAGGAUCACCCAUGUAAUAAUAUGGGAGGAUAUACUAAAAUAAAAUAAAAUGUAGAAGGCCUAAUAA [LROPPY Same State 1 - v05_deltaG=1.05 break up the As]	35.5 nM
GAAAAACAUGAGGAUCACCCAUGUAAAAAUAUGGGAGGAUAUUCAAAGACGAAAGGGAAAGAAGAAGGCCUAAAAG [Garnet 4]	82.7 nM
AAAUGACAUGAGGAUCACCCAUGUCCACCAAACGGAGGAUAUUGGGCGGAAAAACGUUGUUAAGAAGGCCGAAAAA [SS1-1.0]	143 nM
AAGAAAGUUUACGAGGAUAUGUUCCGCAGAACAUGAGGAUCACCCAUGUGAACAAGAAAGGCGACGCAGAAGGCGUGAGCUAUGA [Anesdien]	32.7 nM
UAAAAACAUGAGGAUCACCCAUGUGAGAACAUGGGAGGAUAUACGAAGACGAAAGUCGAAGUAGAAGGCCUAAAAU [Mat - Same State 1 - Mod - D172]	145 nM
AAAAAACAUGAGGAUCACCCAUGUAAAAAAAACACAGGAUAUCCCUUUUUUAAAUGAAAAGGAGAAGGGUGAAAAA [Nob's Hobby 9 - Jieux - Same State 1]	22.6 nM
AAAAAACAUGAGGAUCACCCAUGUAGAAACAUGGGAGGAUAUACAAAGACGAAAGUCAAAGUAGAAGGCCUAAAAA [Mat - Same State 1 - Mod - D157]	77.7 nM
AGGAAACAUGAGGAUCACCCAUGUAAAAGGUGGUUAGGAUAUGCGAAAAGAAAAAGAAAAGCAGAAGGGACAAGAA [Inspired by JR's SameStare1_sub2]	237 nM
AAAGUGCCGACGAAGGAUAUAGCGGGUGAGACAUGAGGAUCACCCAUGUAUGCAGAACUCAUCCUCUAGAAGGUUGAGACGGCUA [Bionlateat]	488 nM
AAAAGACAUGAGGAUCACCCAUGUAAAAACUUGAGAGGAUAUGCUUGGAAAACAUGCUAUGCAGAAGGCUCUAGUC [SS1 - 15]	18 nM
AAGAAACAUGAGGAUCACCCAUGUAAGAUAAACACAGGAUAUGCGAAAGAAAUAAAGAAAGCAGAAGGGUGAAGAA [Mat - Same State 1 - Tesla mod - D147]	14.3 nM
AUAAAAUAAAAGGAGGAUAUCCAUAAUAAAACAUGAGGAUCACCCAUGUAAAAAAGAAGAAAAUGGGAGAAGGCCUAAAAUAAAU [SS2 M 27]	11.4 nM
AGAAAUAAAAGACAGGAUAUCCAAACUCAAACAUGAGGAUCACCCAUGUAAAAGAAAAUAAAGUGGGAGAAGGGUCAAAAUAAGA [Jieux modified + C segment V4]	12.6 nM
UUACAGCACAGGUAGGAUAUGUAGGGUGGUACAUGAGGAUCACCCAUGUAUCCACCCUUCGAAAGGCAGAAGGGCCUGUCGCUGC [Arsora]	24.6 nM
UGGAAACAUGAGGAUCACCCAUGUAAAAGGUGGUCAGGAUAUGCGAAAAGAAAAAGAAAAGUAGAAGGGACAAGAA [Mod of Eli's Mod]	65.9 nM
GGUACAUCUAGUUAGGAUAUCAGGUGUAAGACAUGAGGAUCACCCAUGUCCUAAGAACAGGUAACUGAGAAGGAACAGGGAGUCC [JR_SS002_Sub416]	64.6 nM
UAAAAACAUGAGGAUCACCCAUGUGAGAACAUGGGAGGAUAUACAAAGACGAAAGUCAAAGUAGAAGGCCUAAAAU [Mat - Same State 1 - Mod - D170]	75.1 nM
AAGAAACAUGAGGAUCACCCAUGUAGAAACAUGGGAGGAUAUACAAAGACGAAAGUCAAAGUAGAAGGCCUAAGAA [Mat - Same State 1 - Mod - D164]	102 nM
AAUCCAAAUAGUUAGGAUAUGGGAAUUAAAACAUGAGGAUCACCCAUGUAAUUGAAACAAGUUAACCAGAAGGGACAGGGUGAAA [JR_SS002_Sub209]	68.8 nM
GAAGACAUAGUUCAGGAUAUAGGAAUAGUCACAUGAGGAUCACCCAUGUGCAUUUAUAUGCGCGCUUAGAAGGGAGGUAGAUAAU [Mat - Same state - Malcolm Mod - D119]	24.5 nM
AUAAAAUAAACUGAGGAUAUCUAUAAUAAAACAUGAGGAUCACCCAUGUUUAAACAAAGAUCAUGGGAGAAGGCAGAAAAUAAAU [SS2 M 38]	37.8 nM
